Target: T1, DbfS sensory domain, DbfS^SD-6xHis (Vibrio cholerae, UniProt Q9KRK1 43-171)
T1 sequence: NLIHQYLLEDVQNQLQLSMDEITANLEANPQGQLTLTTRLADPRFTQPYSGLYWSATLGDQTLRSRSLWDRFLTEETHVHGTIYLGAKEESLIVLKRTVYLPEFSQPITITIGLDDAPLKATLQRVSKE
Assay: MST

B1: DbfQ (processed, 6xHis tag-cleaved) (natural protein)
chain: DNKVRDWEQGSYREGTQIEIDEDQDDVYRAVQKGLIRPFAELYATVDQQLNGRLIKVELDEDDDEWIYELKLVYDNQVFRVEYNAATLELMSIRGRNVIRAIKK
modifications: Red-NHS dye, amine-reactive, covalent (in the MST experiments only)
- Kd: 30 nM
